Positions of bridges follow the written chain, without caps; N, C: chain ends. Non-standard residues stand in square brackets, D forms with d. Phe(4-tBu) = CC(C)(C)c1ccc(C[C@H](N)C(=O)O)cc1; Bip = N[C@@H](Cc1ccc(-c2ccccc2)cc1)C(=O)O; Phe(4-Br) = N[C@@H](Cc1ccc(Br)cc1)C(=O)O; Phe(4-Cl) = N[C@@H](Cc1ccc(Cl)cc1)C(=O)O; Phe(4-F) = N[C@@H](Cc1ccc(F)cc1)C(=O)O; 1Nal = N[C@@H](Cc1cccc2ccccc12)C(=O)O; 2Nal = N[C@@H](Cc1ccc2ccccc2c1)C(=O)O; 3Pal = N[C@@H](Cc1cccnc1)C(=O)O; 4Pal = N[C@@H](Cc1ccncc1)C(=O)O; NMeNle = CCCC[C@H](NC)C(=O)O; NMeA = CN[C@@H](C)C(=O)O; Sar = CNCC(=O)O
Target: T1, human PD-L1 (human, UniProt Q9NZQ7 19-239, limits assumed)
T1 construct: also called Hu PD-L1; hPD-L1
T1 sequence (Q9NZQ7 19-239 limits assumed): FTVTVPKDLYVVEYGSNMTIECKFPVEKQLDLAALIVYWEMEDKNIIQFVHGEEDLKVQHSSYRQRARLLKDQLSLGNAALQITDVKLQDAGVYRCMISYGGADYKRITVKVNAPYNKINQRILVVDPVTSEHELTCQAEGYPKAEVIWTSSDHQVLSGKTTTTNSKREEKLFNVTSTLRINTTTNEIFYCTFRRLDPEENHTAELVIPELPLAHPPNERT
Assay: cell binding assay, inhibition of Hu PD-L1/PD-1 binding

B1: Compound No. 32 (peptide)
peptide: {CH2CO}-[Phe(4-F)][NMeA]NPHL[Sar]WSW[NMeNle][NMeNle]RCG-NH2
modifications: thioether N-14
SMILES: CCCC[C@H]1C(=O)N(C)[C@@H](CCCC)C(=O)N[C@@H](CCCNC(=N)N)C(=O)N[C@H](C(=O)NCC(N)=O)CSCC(=O)N[C@@H](Cc2ccc(F)cc2)C(=O)N(C)[C@@H](C)C(=O)N[C@@H](CC(N)=O)C(=O)N2CCC[C@H]2C(=O)N[C@@H](Cc2c[nH]cn2)C(=O)N[C@@H](CC(C)C)C(=O)N(C)CC(=O)N[C@@H](Cc2c[nH]c3ccccc23)C(=O)N[C@@H](CO)C(=O)N[C@@H](Cc2c[nH]c3ccccc23)C(=O)N1C
notes: macrocyclic peptide, Formula I series; also called Compound 32
IC50: 25 nM

B2: Compound No. 39 (peptide)
peptide: {CH2CO}-[4Pal][NMeA]NPHL[Sar]WSW[NMeNle][NMeNle]RCG-NH2
modifications: thioether N-14
SMILES: CCCC[C@H]1C(=O)N(C)[C@@H](CCCC)C(=O)N[C@@H](CCCNC(=N)N)C(=O)N[C@H](C(=O)NCC(N)=O)CSCC(=O)N[C@@H](Cc2ccncc2)C(=O)N(C)[C@@H](C)C(=O)N[C@@H](CC(N)=O)C(=O)N2CCC[C@H]2C(=O)N[C@@H](Cc2c[nH]cn2)C(=O)N[C@@H](CC(C)C)C(=O)N(C)CC(=O)N[C@@H](Cc2c[nH]c3ccccc23)C(=O)N[C@@H](CO)C(=O)N[C@@H](Cc2c[nH]c3ccccc23)C(=O)N1C
notes: macrocyclic peptide, Formula I series; also called Compound 39
IC50: 283 nM

B3: Compound No. 28 (peptide)
peptide: {CH2CO}-[Bip][NMeA]NPHL[Sar]WSW[NMeNle][NMeNle]RCG-NH2
modifications: thioether N-14
SMILES: CCCC[C@H]1C(=O)N(C)[C@@H](CCCC)C(=O)N[C@@H](CCCNC(=N)N)C(=O)N[C@H](C(=O)NCC(N)=O)CSCC(=O)N[C@@H](Cc2ccc(-c3ccccc3)cc2)C(=O)N(C)[C@@H](C)C(=O)N[C@@H](CC(N)=O)C(=O)N2CCC[C@H]2C(=O)N[C@@H](Cc2c[nH]cn2)C(=O)N[C@@H](CC(C)C)C(=O)N(C)CC(=O)N[C@@H](Cc2c[nH]c3ccccc23)C(=O)N[C@@H](CO)C(=O)N[C@@H](Cc2c[nH]c3ccccc23)C(=O)N1C
notes: macrocyclic peptide, Formula I series; also called Compound 28
IC50: 82 nM

B4: Compound No. 27 (peptide)
peptide: {CH2CO}-[1Nal][NMeA]NPHL[Sar]WSW[NMeNle][NMeNle]RCG-NH2
modifications: thioether N-14
SMILES: CCCC[C@H]1C(=O)N(C)[C@@H](CCCC)C(=O)N[C@@H](CCCNC(=N)N)C(=O)N[C@H](C(=O)NCC(N)=O)CSCC(=O)N[C@@H](Cc2cccc3ccccc23)C(=O)N(C)[C@@H](C)C(=O)N[C@@H](CC(N)=O)C(=O)N2CCC[C@H]2C(=O)N[C@@H](Cc2c[nH]cn2)C(=O)N[C@@H](CC(C)C)C(=O)N(C)CC(=O)N[C@@H](Cc2c[nH]c3ccccc23)C(=O)N[C@@H](CO)C(=O)N[C@@H](Cc2c[nH]c3ccccc23)C(=O)N1C
notes: macrocyclic peptide, Formula I series; also called Compound 27
IC50: 28 nM

B5: Compound No. 24 (peptide)
peptide: {CH2CO}-F[NMeA]NPHL[Sar]WSW[NMeNle][NMeNle]RC-NH2
modifications: thioether N-14
SMILES: CCCC[C@H]1C(=O)N(C)[C@@H](CCCC)C(=O)N[C@@H](CCCNC(=N)N)C(=O)N[C@H](C(N)=O)CSCC(=O)N[C@@H](Cc2ccccc2)C(=O)N(C)[C@@H](C)C(=O)N[C@@H](CC(N)=O)C(=O)N2CCC[C@H]2C(=O)N[C@@H](Cc2c[nH]cn2)C(=O)N[C@@H](CC(C)C)C(=O)N(C)CC(=O)N[C@@H](Cc2c[nH]c3ccccc23)C(=O)N[C@@H](CO)C(=O)N[C@@H](Cc2c[nH]c3ccccc23)C(=O)N1C
notes: macrocyclic peptide, Formula I series; also called Compound 24
IC50: 8 nM

B6: Compound No. 37 (peptide)
peptide: {CH2CO}-[Phe(4-tBu)][NMeA]NPHL[Sar]WSW[NMeNle][NMeNle]RCG-NH2
modifications: thioether N-14
SMILES: CCCC[C@H]1C(=O)N(C)[C@@H](CCCC)C(=O)N[C@@H](CCCNC(=N)N)C(=O)N[C@H](C(=O)NCC(N)=O)CSCC(=O)N[C@@H](Cc2ccc(C(C)(C)C)cc2)C(=O)N(C)[C@@H](C)C(=O)N[C@@H](CC(N)=O)C(=O)N2CCC[C@H]2C(=O)N[C@@H](Cc2c[nH]cn2)C(=O)N[C@@H](CC(C)C)C(=O)N(C)CC(=O)N[C@@H](Cc2c[nH]c3ccccc23)C(=O)N[C@@H](CO)C(=O)N[C@@H](Cc2c[nH]c3ccccc23)C(=O)N1C
notes: macrocyclic peptide, Formula I series; also called Compound 37
IC50: 2520 nM

B7: Compound No. 67 (peptide)
peptide: FANPHLGWSWFXRCG
HELM: PEPTIDE1{[O=C(C[*:3])[*:2]].F.[meA].N.P.H.L.[Sar].W.S.W.[meF].[CCCC[C@@H](C(=O)[*:2])N(C)[*:1]].R.C.G.[am]}$PEPTIDE1,PEPTIDE1,1:R3-15:R3$$$V2.0
SMILES: CCCC[C@H]1C(=O)N[C@@H](CCCNC(=N)N)C(=O)N[C@H](C(=O)NCC(N)=O)CSCC(=O)N[C@@H](Cc2ccccc2)C(=O)N(C)[C@@H](C)C(=O)N[C@@H](CC(N)=O)C(=O)N2CCC[C@H]2C(=O)N[C@@H](Cc2c[nH]cn2)C(=O)N[C@@H](CC(C)C)C(=O)N(C)CC(=O)N[C@@H](Cc2c[nH]c3ccccc23)C(=O)N[C@@H](CO)C(=O)N[C@@H](Cc2c[nH]c3ccccc23)C(=O)N(C)[C@@H](Cc2ccccc2)C(=O)N1C
notes: macrocyclic peptide, Formula I series; also called Compound 67
IC50: 143 nM

B8: Compound No. 65 (peptide)
peptide: FANPHLGWSWLXRCG
HELM: PEPTIDE1{[O=C(C[*:3])[*:2]].F.[meA].N.P.H.L.[Sar].W.S.W.[meL].[CCCC[C@@H](C(=O)[*:2])N(C)[*:1]].R.C.G.[am]}$PEPTIDE1,PEPTIDE1,1:R3-15:R3$$$V2.0
SMILES: CCCC[C@H]1C(=O)N[C@@H](CCCNC(=N)N)C(=O)N[C@H](C(=O)NCC(N)=O)CSCC(=O)N[C@@H](Cc2ccccc2)C(=O)N(C)[C@@H](C)C(=O)N[C@@H](CC(N)=O)C(=O)N2CCC[C@H]2C(=O)N[C@@H](Cc2c[nH]cn2)C(=O)N[C@@H](CC(C)C)C(=O)N(C)CC(=O)N[C@@H](Cc2c[nH]c3ccccc23)C(=O)N[C@@H](CO)C(=O)N[C@@H](Cc2c[nH]c3ccccc23)C(=O)N(C)[C@@H](CC(C)C)C(=O)N1C
notes: macrocyclic peptide, Formula I series; also called Compound 65
IC50: 258 nM

B9: Compound No. 19 (peptide)
peptide: FANPHLGWSWAXRCG
HELM: PEPTIDE1{[O=C(C[*:3])[*:2]].F.[meA].N.P.H.L.[Sar].W.S.W.[meA].[CCCC[C@@H](C(=O)[*:2])N(C)[*:1]].R.C.G.[am]}$PEPTIDE1,PEPTIDE1,1:R3-15:R3$$$V2.0
SMILES: CCCC[C@H]1C(=O)N[C@@H](CCCNC(=N)N)C(=O)N[C@H](C(=O)NCC(N)=O)CSCC(=O)N[C@@H](Cc2ccccc2)C(=O)N(C)[C@@H](C)C(=O)N[C@@H](CC(N)=O)C(=O)N2CCC[C@H]2C(=O)N[C@@H](Cc2c[nH]cn2)C(=O)N[C@@H](CC(C)C)C(=O)N(C)CC(=O)N[C@@H](Cc2c[nH]c3ccccc23)C(=O)N[C@@H](CO)C(=O)N[C@@H](Cc2c[nH]c3ccccc23)C(=O)N(C)[C@@H](C)C(=O)N1C
notes: macrocyclic peptide, Formula I series; also called Compound 19
IC50: 134 nM

B10: Compound No. 26 (peptide)
peptide: {CH2CO}-[2Nal][NMeA]NPHL[Sar]WSW[NMeNle][NMeNle]RCG-NH2
modifications: thioether N-14
SMILES: CCCC[C@H]1C(=O)N(C)[C@@H](CCCC)C(=O)N[C@@H](CCCNC(=N)N)C(=O)N[C@H](C(=O)NCC(N)=O)CSCC(=O)N[C@@H](Cc2ccc3ccccc3c2)C(=O)N(C)[C@@H](C)C(=O)N[C@@H](CC(N)=O)C(=O)N2CCC[C@H]2C(=O)N[C@@H](Cc2c[nH]cn2)C(=O)N[C@@H](CC(C)C)C(=O)N(C)CC(=O)N[C@@H](Cc2c[nH]c3ccccc23)C(=O)N[C@@H](CO)C(=O)N[C@@H](Cc2c[nH]c3ccccc23)C(=O)N1C
notes: macrocyclic peptide, Formula I series; also called Compound 26
IC50: 13 nM

B11: Compound No. 34 (peptide)
peptide: {CH2CO}-[Phe(4-Br)][NMeA]NPHL[Sar]WSW[NMeNle][NMeNle]RCG-NH2
modifications: thioether N-14
SMILES: CCCC[C@H]1C(=O)N(C)[C@@H](CCCC)C(=O)N[C@@H](CCCNC(=N)N)C(=O)N[C@H](C(=O)NCC(N)=O)CSCC(=O)N[C@@H](Cc2ccc(Br)cc2)C(=O)N(C)[C@@H](C)C(=O)N[C@@H](CC(N)=O)C(=O)N2CCC[C@H]2C(=O)N[C@@H](Cc2c[nH]cn2)C(=O)N[C@@H](CC(C)C)C(=O)N(C)CC(=O)N[C@@H](Cc2c[nH]c3ccccc23)C(=O)N[C@@H](CO)C(=O)N[C@@H](Cc2c[nH]c3ccccc23)C(=O)N1C
notes: macrocyclic peptide, Formula I series; also called Compound 34
IC50: 37 nM

B12: Compound No. 33 (peptide)
peptide: {CH2CO}-[Phe(4-Cl)][NMeA]NPHL[Sar]WSW[NMeNle][NMeNle]RCG-NH2
modifications: thioether N-14
SMILES: CCCC[C@H]1C(=O)N(C)[C@@H](CCCC)C(=O)N[C@@H](CCCNC(=N)N)C(=O)N[C@H](C(=O)NCC(N)=O)CSCC(=O)N[C@@H](Cc2ccc(Cl)cc2)C(=O)N(C)[C@@H](C)C(=O)N[C@@H](CC(N)=O)C(=O)N2CCC[C@H]2C(=O)N[C@@H](Cc2c[nH]cn2)C(=O)N[C@@H](CC(C)C)C(=O)N(C)CC(=O)N[C@@H](Cc2c[nH]c3ccccc23)C(=O)N[C@@H](CO)C(=O)N[C@@H](Cc2c[nH]c3ccccc23)C(=O)N1C
notes: macrocyclic peptide, Formula I series; also called Compound 33
IC50: 7 nM

B13: Compound No. 62 (peptide)
peptide: {CH2CO}-F[NMeA]NPHL[Sar]WSI[NMeNle][NMeNle]RCG-NH2
modifications: thioether N-14
SMILES: CCCC[C@H]1C(=O)N(C)[C@@H](CCCC)C(=O)N[C@@H](CCCNC(=N)N)C(=O)N[C@H](C(=O)NCC(N)=O)CSCC(=O)N[C@@H](Cc2ccccc2)C(=O)N(C)[C@@H](C)C(=O)N[C@@H](CC(N)=O)C(=O)N2CCC[C@H]2C(=O)N[C@@H](Cc2c[nH]cn2)C(=O)N[C@@H](CC(C)C)C(=O)N(C)CC(=O)N[C@@H](Cc2c[nH]c3ccccc23)C(=O)N[C@@H](CO)C(=O)N[C@@H]([C@@H](C)CC)C(=O)N1C
notes: macrocyclic peptide, Formula I series; also called Compound 62
IC50: 3410 nM

B14: Compound No. 38 (peptide)
peptide: {CH2CO}-[3Pal][NMeA]NPHL[Sar]WSW[NMeNle][NMeNle]RCG-NH2
modifications: thioether N-14
SMILES: CCCC[C@H]1C(=O)N(C)[C@@H](CCCC)C(=O)N[C@@H](CCCNC(=N)N)C(=O)N[C@H](C(=O)NCC(N)=O)CSCC(=O)N[C@@H](Cc2cccnc2)C(=O)N(C)[C@@H](C)C(=O)N[C@@H](CC(N)=O)C(=O)N2CCC[C@H]2C(=O)N[C@@H](Cc2c[nH]cn2)C(=O)N[C@@H](CC(C)C)C(=O)N(C)CC(=O)N[C@@H](Cc2c[nH]c3ccccc23)C(=O)N[C@@H](CO)C(=O)N[C@@H](Cc2c[nH]c3ccccc23)C(=O)N1C
notes: macrocyclic peptide, Formula I series; also called Compound 38
IC50: 368 nM
